In US20200131266A1 (STCUBE, published 2020):
Positions count from the first letter of the chain named.

T1: human BTN1A1 on cells (human, UniProt Q13410 27-526)
T1 construct: also called HEK293T cells overexpressing BTN1A1
T1 sequence: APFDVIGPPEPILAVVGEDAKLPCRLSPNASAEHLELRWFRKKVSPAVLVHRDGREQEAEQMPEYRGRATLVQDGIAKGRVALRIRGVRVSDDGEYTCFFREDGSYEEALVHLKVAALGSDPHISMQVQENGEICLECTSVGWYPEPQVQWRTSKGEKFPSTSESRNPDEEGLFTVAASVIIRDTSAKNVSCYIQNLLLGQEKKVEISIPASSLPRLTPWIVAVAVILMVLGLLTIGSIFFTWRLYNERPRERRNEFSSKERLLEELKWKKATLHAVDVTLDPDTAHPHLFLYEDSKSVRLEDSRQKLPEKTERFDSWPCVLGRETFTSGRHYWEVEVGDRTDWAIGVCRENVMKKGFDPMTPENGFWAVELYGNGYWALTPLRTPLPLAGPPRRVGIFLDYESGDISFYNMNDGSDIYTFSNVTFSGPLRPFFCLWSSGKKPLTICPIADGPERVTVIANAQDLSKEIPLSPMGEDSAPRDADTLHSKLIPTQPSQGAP

B1: STC2739 (antibody, V domains shown)
VH: QVQLKQSGPGLVQPSQSLSITCTVSGFSLTTHGVNWVRQSPGKGLEWLGVIWSGGSTDYNAAFISRLSISKDNSKSQVFFKMNSLQANDTAIYYCARPYYYGAMDYWGQGTSVTVSS
VL: QIVLTQSPSIMSASPGEKVTITCSASSSVSYIHWFQQKPGTSPKLWIYSTSNLASGVPARFSGSGSGTSYSLTISRMEAEDAATYYCQQRSIYPLTFGAGTKLELK
notes: mouse hybridoma monoclonal antibody raised against human BTN1A1-Fc, kappa light chain
B2: STC2602 (antibody, V domains shown)
VH: EVQLQQSGPELVKPGASVKISCKASGFSFIGYYIDWVKQSPGKSLEWIGYIYPSNGETSYHQKCKGKATLTVDKSSSTVNMQLNSLTSEDSAVYYCARYGNYDWFFDVWGAGTTVTVSS
VL: B1 VL with S9A, I32M, L45F, A59I, I92S, L95Y, A99G, L105I
notes: mouse hybridoma monoclonal antibody, kappa light chain
B3: STC2778 (antibody, V domains shown)
VH: QIQLVQSGPELKKPGETVKISCKASGYSFTNYGMNWVKQAPGKGLKWMGWINIYTGETTYGDDFKGRFAFSLETSASTAYLQINNLRSEDTATYFCVRGGTMIMYWGQGTTLTVSS
VL: DIVLTQSPATLSVTPGDSVSLSCRASQSISNNLHWHQQKSHESPRLLIKYASQSMSGIPSRFSGSGSGTDFTLSINSVETEDFGMYFCQQSDSWPLTFGAGTKLELK
notes: as for B1

Each binder was assayed against T1, human BTN1A1 on cells (assay: FACS, HEK293T cells overexpressing BTN1A1).
Method: To identify anti-BTN1A1-Fc MAbs that were specific for and which preferentially bound human BTN1A1-Fc antigen, different types of assays were performed. In a screening assay to detect preferential binding of MAbs to BTN1A1, antibody binding was determined based on the measurement of fluorescence intensity through FACS analysis (using cell membrane bound proteins). By way of example, the assay was performed using the HEK293T human embryonic kidney cell line. Illustratively, HEK293T cells overexpressing BTN1A1 were incubated with anti-BTN1A1 antibodies existing in hybridoma culture supernatant. After washing, secondary antibodies conjugated with FITC were added as detection agent. Fluorescence intensity (measured fluorescence intensity, MFI) was measured via FACS I flow cytometry analysis to assess the relative binding of the anti-BTN1A1 antibodies to membrane bound BTN1A1 WT on cells. […] Based on the binding analysis, sixty seven candidate MAb-producing hybridomas were selected, grown in ADCF medium, and their supernatant containing monoclonal antibody was concentrated and purified.
B1 was tested, and the “FACS (MFI)” value was 841 MFI. For B2, the “FACS (MFI)” value was 69.5 MFI. B3 was tested, and the “FACS (MFI)” value was 2340 MFI.
